Test results published in patent US20200338209A1, “ANTI-B7-H3 ANTIBODIES AND ANTIBODY DRUG CONJUGATES” (AbbVie Inc., priority 2016, published 2020).

T1: human B7-H3 (4Ig-B7-H3 variant) (Homo sapiens, UniProt Q5ZPR3)
T1 construct: His tag (6xHis) (C)
T1 sequence (Q5ZPR3 with tags, fused parts or gaps): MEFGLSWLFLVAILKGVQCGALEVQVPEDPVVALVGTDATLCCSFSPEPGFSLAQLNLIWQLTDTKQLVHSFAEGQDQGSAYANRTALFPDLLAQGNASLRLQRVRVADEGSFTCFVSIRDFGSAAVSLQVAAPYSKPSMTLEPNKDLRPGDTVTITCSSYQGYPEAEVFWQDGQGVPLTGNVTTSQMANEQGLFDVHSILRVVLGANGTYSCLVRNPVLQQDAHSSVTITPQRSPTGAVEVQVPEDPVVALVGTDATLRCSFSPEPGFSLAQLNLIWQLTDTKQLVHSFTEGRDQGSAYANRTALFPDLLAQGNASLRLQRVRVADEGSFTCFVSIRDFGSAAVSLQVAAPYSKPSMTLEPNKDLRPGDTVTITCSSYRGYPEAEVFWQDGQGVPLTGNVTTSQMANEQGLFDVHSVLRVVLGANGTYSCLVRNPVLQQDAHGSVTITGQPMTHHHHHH

B1: Ab2: mouse hybridoma derived anti-B7-H3 monoclonal antibodies (mAbs) (antibody, V domains shown)
VH: QVQLQQPGAELVKPGASVKLSCKASGYTFTSYWMHWVKQRPGQGLEWIGMIHPDSGTTNYNEKFRSKATLTVDKSSSTAYMQLSSLTSEDSAVYYCAVYYGSTYWYFDVWGTGTTVTVSS
VL: DVVMTQTPLSLPVSLGDQAYISCRSSQSLVHINGNTYLHWYRQKPGQSPKLLIYKVSNRFSGVPDRFSGSGSGTDFTLKISRVEAEDLGVYFCSQSTHFPFTFGSGTKLEIK
B2: Ab11: murine anti-B7-H3 mAbs; mouse hybridoma derived (antibody, V domains shown)
VH: EVKLVESGGGLVQPGGSLRLSCATSGFTFTNYYMSWVRQPPGKALEWLGFIRNKANDYTTEYSASVKGRFTISRDNSQSILYLQMNTLRAEDSATYYCARESPGNPFAYWGQGTLVTVSA
VL: DIVMTQSPSSLTVTAGEKVTMTCKSSQSLLNSGTQKNFLTWYQQKPGQPPKLLIYWASTRESGVPDRFTGSGSGTDFTLTISSVQAEDLAVYFCQNDYIYPLTFGAGTKLELK
B3: huAb3v4-CZ (conjugate)
VH: EVQLVQSGAEVKKPGSSVKVSCKASGYTFSSYWMHWVRQAPGQGLEWMGLIHPDSGSTNYNEMFKNRVTITADKSTSTAYMELSSLRSEDTAVYYCARGGRLYFDYWGQGTTVTVSS
VL: DVVMTQSPLSLPVTPGEPASISCRSSQSLVHSNGDTYLRWYLQKPGQSPQLLIYKVSNRFSGVPDRFSGSGSGTDFTLKISRVEAEDVGVYYCSQSTHVPYTFGGGTKVEIK
modifications: drug conjugate CZ; Synthetic huAb3VH.1, huAb3v1, and huAb3v4 VH amino acid sequence; Synthetic huAb3VL.1b, huAb3v4, huAb3v5, and huAb3v6 VL amino acid sequence
B4: Ab17: mouse hybridoma derived anti-B7-H3 monoclonal antibodies (mAbs) (antibody, V domains shown)
VH: EVKLVESGGGLVQPGGSLKLSCAASGFTFSSYIMSWVRQTPEKRLEWVASIVSSNITYYPDSMKGRFTISRDNARNILYLQMSSLKSEDTAMYYCARSGTRAWFAYWGQGTLVTVSA
VL: DIVLTQSPASLAVSLGQRATISCRASKSVSTSAYSYMHWYQQKPGQPPKLLIYLASNLESGVPARFSGSGSGTDFTLNIHPVEEEDAATYYCQHSRELPYTFGGGTKLEIK
B5: Ab6: mouse hybridoma derived anti-B7-H3 monoclonal antibodies (mAbs) (antibody, V domains shown)
VH: QVQLQQSGAELMKPGASVKISCKATGYTFSRYWIEWVKQRPGHGLEWIGEILPGSGSTNYNEKFKGKATFTADTSSNTAYMQVSSLTSEDSAVHYCARRGYGYVPYALDYWGQGTSVTVSS
VL: EIQMTQTTSSLSASLGDRVTISCRASQDISNSLNWYQQKPDGTVNLLIYYTSRLYSGVPSRFSGSGSGTDYSLTISNLEQEDIATYFCQQGNTLPYTFGGGTKLEIK
B6: Ab7: mouse hybridoma derived anti-B7-H3 monoclonal antibodies (mAbs) (antibody, V domains shown)
VH: EVQLVESGENLVKPGGSLKLSCAASGFSFRGYGMSWVRQTPDKRLEWVAAISTGGNYTYYPDSVQGRFTISRDNANNTLYLQMSSLKSEDTAMYYCARRGGNYAGFAYWGQGTLVTVSA
VL: DIQMTQSPASLSVSVGETVTITCRPSENIYSNLAWYQQKQGKSPQLLVYAATNLADGVPSRFSGSGSGTQYSLKINSLQSEDFGTYYCQHFWGTPFTFGSGTKLEIK

What was measured:
[1] = biological target: T1, human B7-H3 (4Ig-B7-H3 variant); assay: Biacore T200 SPR binding kinetics, mAb capture, soluble ECD of human B7-H3; conditions: 1:1 binding model
Method: (§1) The binding affinity of the purified anti-B7-H3 monoclonal antibodies was determined by surface […]. […] The binding kinetics were derived from SPR measurements using a Biacore T200 instrument and a mAb capture approach (as described in the materials and methods below).
(§2) Biacore T200 SPR instruments were used to measure the binding kinetics of human B7-H3 (4Ig-B7-H3 variant) (analyte) binding to various mAbs (ligands). The assay format was Fc-based capture via immobilized anti-mouse (Fc) (Pierce 31170) or immobilized anti-human (Fc) (Pierce 31125). A standard amine coupling protocol was employed to immobilize the capture reagents via primary amines to the carboxy-methyl (CM) dextran surface of CM5 sensorchips (Biacore); capture antibodies were coupled to a level of approximately 5000RU. For binding kinetic measurements the assay buffer was HBS-EP+ (Biacore): 10 mM Hepes, pH7.4, 150 mM NaCl, 3 mM EDTA, 0.05% polysorbate 20. During the assay, all measurements were referenced against the capture surface alone. Each assay cycle consisted of the following steps: 1) Capture of ligand to approximately 50RU; 2) Analyte injection over both reference and test surface, 240 μL at 80 μL/min, after which the dissociation was monitored for 900 seconds at 80 μL/min; 3) Regeneration of capture surface with low pH glycine. For kinetic determinations analyte injections were 3-point, 9-fold dilution series of 900 nM, 100 nM and 11.11 nM, buffer only injections were included for secondary referencing. Data were processed and fit to a 1:1 binding model using Biacore T200 Evaluation Software to determine the binding kinetic rate constants, ka (on-rate) and kd (off-rate), and the equilibrium dissociation constant (affinity, KD).

[2] = test system: cyno B7-H3; assay: Biacore T200 SPR binding kinetics, mAb capture, soluble ECD of cyno B7-H3; design: species or system cynomolgus monkey; conditions: 1:1 binding model
Method: [The source words this procedure for another species and reports this species under the same test.] as §1, §2

[3] = Percentage aggregation of ADCs by size exclusion chromatography (SEC); type: physicochemical; conditions: humanized Ab3-CZ variants, Table 14
Method: The DAR and percentage aggregation of ADCs synthesized were determined by LC-MS and size exclusion chromatography (SEC), respectively.
Size exclusion chromatography was performed using a Shodex KW802.5 column in 0.2 M potassium phosphate pH 6.2 with 0.25 mM potassium chloride and 15% IPA at a flow rate of 0.75 ml/min. The peak area absorbance at 280 nm was determined for each of the high molecular weight and monomeric eluents by integration of the area under the curve. The % aggregate fraction of the conjugate sample was determined by dividing the peak area absorbance at 280 nm for the high molecular weight eluent by the sum of the peak area absorbances at […] of the high molecular weight and monomeric eluents multiplied by 100%.

cyno B7-H3, sequence (as listed by the source): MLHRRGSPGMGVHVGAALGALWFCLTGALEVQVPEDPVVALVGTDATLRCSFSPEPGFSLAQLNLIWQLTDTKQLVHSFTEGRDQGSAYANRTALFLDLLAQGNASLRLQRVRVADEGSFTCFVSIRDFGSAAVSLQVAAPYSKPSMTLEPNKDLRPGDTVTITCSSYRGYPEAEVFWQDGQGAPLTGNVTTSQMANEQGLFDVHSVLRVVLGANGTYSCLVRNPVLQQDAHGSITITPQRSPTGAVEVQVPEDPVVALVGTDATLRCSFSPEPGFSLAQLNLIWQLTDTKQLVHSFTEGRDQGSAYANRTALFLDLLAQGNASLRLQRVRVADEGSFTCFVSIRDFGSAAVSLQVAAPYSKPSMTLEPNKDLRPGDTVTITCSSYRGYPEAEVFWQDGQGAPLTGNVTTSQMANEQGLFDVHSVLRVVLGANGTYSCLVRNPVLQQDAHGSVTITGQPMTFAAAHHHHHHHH

| Molecule | ka (1/Ms) huB7-H3 [1] | kd (1/s) huB7-H3 [1] | ka (1/Ms) cynoB7-H3 [2] | kd (1/s) cynoB7-H3 [2] | % agg by SEC [3] | KD (M) huB7-H3 [1] | KD (M) cynoB7-H3 [2] |
| --- | --- | --- | --- | --- | --- | --- | --- |
| B1 | 120000 M⁻¹ s⁻¹ | 0.0029 s⁻¹ | 230000 M⁻¹ s⁻¹ | 0.011 s⁻¹ | – | – | – |
| B2 | 20000 M⁻¹ s⁻¹ | 0.00089 s⁻¹ | 27000 M⁻¹ s⁻¹ | 7.2e-05 s⁻¹ | – | – | – |
| B3 | – | – | – | – | 3.1% | – | – |
| B4 | 540000 M⁻¹ s⁻¹ | 1.9e-05 s⁻¹ | 510000 M⁻¹ s⁻¹ | 1e-05 s⁻¹ | – | – | – |
| B5 | 12000 M⁻¹ s⁻¹ | 0.01 s⁻¹ | 28000 M⁻¹ s⁻¹ | 0.012 s⁻¹ | – | – | – |
| B6 | – | – | – | – | – | little observable binding | little observable binding |
